# Assay results published in patent publication US20220040297A1 (Chugai, published 2022).
# Target: T1, CD3ε homodimer protein (human, UniProt P07766 23-126, limits assumed)
# T1 construct: also called human CD3ε homodimer protein; CD3e homodimer
# Experiment: SPR (Biacore T200, 25°C); CD3ε homodimer immobilized on CM4, one-arm antibody as analyte
# T1 sequence (P07766 23-126 limits assumed): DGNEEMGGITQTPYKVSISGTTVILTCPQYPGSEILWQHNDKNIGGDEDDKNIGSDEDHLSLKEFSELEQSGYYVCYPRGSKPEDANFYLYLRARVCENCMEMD
row,Kd [nM],Binder
1,71,"NNS6f50 (antibody, one-arm antibody) heavy: QVQLVESGGGLVQPGRSLRLSCAASGFTFSNAWMHWVRQAPGKGLEWVAQIKDKSNNYATYYAESVKGRFTISRDDSKNSIYLQMNSLKTEDTAVYYCRYVHYAALTGGLGYYGVDAWGQGTTVTVSSASTKGPSVFPLAPSSKSTSGGTAALGCLVKDYFPEPVTVSWNSGALTSGVHTFPAVLQSSGLYSLSSVVTVPSSSLGTQTYICNVNHKPSNTKVDKKVEPKSCDKTHTCPPCPAPEAAGGPSVFLFPPKPKDTLMISRTPEVTCVVVDVSHEDPEVKFNWYVDGVEVHNAKTKPREEQYASTYRVVSVLTVLHQDWLNGKEYKCKVSNKALPAPIEKTISKAKGQPREPQVYTLPPSRCELTKNQVSLSCAVKGFYPSDIAVEWESNGQPENNYKTTPPVLDSDGSFFLVSKLTVDKSRWQQGNVFSCSVMHEALHNHYTQKSLSLSPDYKDDDDK EPKSSDKTHTCPPCPAPELLGGPSVFLFPPKPKDTLMISRTPEVTCVVVDVSHEDPEVKFNWYVDGVEVHNAKTKPREEQYNSTYRVVSVLTVLHQDWLNGKEYKCKVSNKALPAPIEKTISKAKGQPREPQVCTLPPSRDELTKNQVSLWCLVKGFYPSDIAVEWESNGQPENNYKTTPPVLDSDGSFFLYSKLTVDKSRWQQGNVFSCSVMHEALHNRYTQKSLSLSP light: DIVMTQSPLSLPVTPGEPASISCRSSQSLVHSNRNTYLHWYQQKPGQAPRLLIYKVSNRFSGVPDRFSGSGSGTDFTLKISRVEAEDVGVYYCGQGTQVPYTFGQGTKLEIKRTVAAPSVFIFPPSDEQLKSGTASVVCLLNNFYPREAKVQWKVDNALQSGNSQESVTEQDSKDSTYSLSSTLTLSKADYEKHKVYACEVTHQGLSSPVTKSFNRGEC"
2,21,"NNS6f56 (antibody, one-arm antibody) heavy: QVQLVESGGGLVQPGRSLRLSCAASGFTFSNAWMHWVRQAPGKGLEWVAQIKDKSNNYATYYAESVKGRFTISRDDSKNSIYLQMNSLKTEDTAVYYCRYVHYAAREATRWYYGVDAWGQGTTVTVSSASTKGPSVFPLAPSSKSTSGGTAALGCLVKDYFPEPVTVSWNSGALTSGVHTFPAVLQSSGLYSLSSVVTVPSSSLGTQTYICNVNHKPSNTKVDKKVEPKSCDKTHTCPPCPAPEAAGGPSVFLFPPKPKDTLMISRTPEVTCVVVDVSHEDPEVKFNWYVDGVEVHNAKTKPREEQYASTYRVVSVLTVLHQDWLNGKEYKCKVSNKALPAPIEKTISKAKGQPREPQVYTLPPSRCELTKNQVSLSCAVKGFYPSDIAVEWESNGQPENNYKTTPPVLDSDGSFFLVSKLTVDKSRWQQGNVFSCSVMHEALHNHYTQKSLSLSPDYKDDDDK EPKSSDKTHTCPPCPAPELLGGPSVFLFPPKPKDTLMISRTPEVTCVVVDVSHEDPEVKFNWYVDGVEVHNAKTKPREEQYNSTYRVVSVLTVLHQDWLNGKEYKCKVSNKALPAPIEKTISKAKGQPREPQVCTLPPSRDELTKNQVSLWCLVKGFYPSDIAVEWESNGQPENNYKTTPPVLDSDGSFFLYSKLTVDKSRWQQGNVFSCSVMHEALHNRYTQKSLSLSP light: DIVMTQSPLSLPVTPGEPASISCRSSQSLVHSNRNTYLHWYQQKPGQAPRLLIYKVSNRFSGVPDRFSGSGSGTDFTLKISRVEAEDVGVYYCGQGTQVPYTFGQGTKLEIKRTVAAPSVFIFPPSDEQLKSGTASVVCLLNNFYPREAKVQWKVDNALQSGNSQESVTEQDSKDSTYSLSSTLTLSKADYEKHKVYACEVTHQGLSSPVTKSFNRGEC"
3,52,"NNS6f52 (antibody, one-arm antibody) heavy: QVQLVESGGGLVQPGRSLRLSCAASGFTFSNAWMHWVRQAPGKGLEWVAQIKDKSNNYATYYAESVKGRFTISRDDSKNSIYLQMNSLKTEDTAVYYCRYVHYAAYMLGLGYYGVDAWGQGTTVTVSSASTKGPSVFPLAPSSKSTSGGTAALGCLVKDYFPEPVTVSWNSGALTSGVHTFPAVLQSSGLYSLSSVVTVPSSSLGTQTYICNVNHKPSNTKVDKKVEPKSCDKTHTCPPCPAPEAAGGPSVFLFPPKPKDTLMISRTPEVTCVVVDVSHEDPEVKFNWYVDGVEVHNAKTKPREEQYASTYRVVSVLTVLHQDWLNGKEYKCKVSNKALPAPIEKTISKAKGQPREPQVYTLPPSRCELTKNQVSLSCAVKGFYPSDIAVEWESNGQPENNYKTTPPVLDSDGSFFLVSKLTVDKSRWQQGNVFSCSVMHEALHNHYTQKSLSLSPDYKDDDDK EPKSSDKTHTCPPCPAPELLGGPSVFLFPPKPKDTLMISRTPEVTCVVVDVSHEDPEVKFNWYVDGVEVHNAKTKPREEQYNSTYRVVSVLTVLHQDWLNGKEYKCKVSNKALPAPIEKTISKAKGQPREPQVCTLPPSRDELTKNQVSLWCLVKGFYPSDIAVEWESNGQPENNYKTTPPVLDSDGSFFLYSKLTVDKSRWQQGNVFSCSVMHEALHNRYTQKSLSLSP light: DIVMTQSPLSLPVTPGEPASISCRSSQSLVHSNRNTYLHWYQQKPGQAPRLLIYKVSNRFSGVPDRFSGSGSGTDFTLKISRVEAEDVGVYYCGQGTQVPYTFGQGTKLEIKRTVAAPSVFIFPPSDEQLKSGTASVVCLLNNFYPREAKVQWKVDNALQSGNSQESVTEQDSKDSTYSLSSTLTLSKADYEKHKVYACEVTHQGLSSPVTKSFNRGEC"
4,44,"NNS6f58 (antibody, one-arm antibody) heavy: QVQLVESGGGLVQPGRSLRLSCAASGFTFSNAWMHWVRQAPGKGLEWVAQIKDKSNNYATYYAESVKGRFTISRDDSKNSIYLQMNSLKTEDTAVYYCRYVHYAASWQVSRYYGVDAWGQGTTVTVSSASTKGPSVFPLAPSSKSTSGGTAALGCLVKDYFPEPVTVSWNSGALTSGVHTFPAVLQSSGLYSLSSVVTVPSSSLGTQTYICNVNHKPSNTKVDKKVEPKSCDKTHTCPPCPAPEAAGGPSVFLFPPKPKDTLMISRTPEVTCVVVDVSHEDPEVKFNWYVDGVEVHNAKTKPREEQYASTYRVVSVLTVLHQDWLNGKEYKCKVSNKALPAPIEKTISKAKGQPREPQVYTLPPSRCELTKNQVSLSCAVKGFYPSDIAVEWESNGQPENNYKTTPPVLDSDGSFFLVSKLTVDKSRWQQGNVFSCSVMHEALHNHYTQKSLSLSPDYKDDDDK EPKSSDKTHTCPPCPAPELLGGPSVFLFPPKPKDTLMISRTPEVTCVVVDVSHEDPEVKFNWYVDGVEVHNAKTKPREEQYNSTYRVVSVLTVLHQDWLNGKEYKCKVSNKALPAPIEKTISKAKGQPREPQVCTLPPSRDELTKNQVSLWCLVKGFYPSDIAVEWESNGQPENNYKTTPPVLDSDGSFFLYSKLTVDKSRWQQGNVFSCSVMHEALHNRYTQKSLSLSP light: DIVMTQSPLSLPVTPGEPASISCRSSQSLVHSNRNTYLHWYQQKPGQAPRLLIYKVSNRFSGVPDRFSGSGSGTDFTLKISRVEAEDVGVYYCGQGTQVPYTFGQGTKLEIKRTVAAPSVFIFPPSDEQLKSGTASVVCLLNNFYPREAKVQWKVDNALQSGNSQESVTEQDSKDSTYSLSSTLTLSKADYEKHKVYACEVTHQGLSSPVTKSFNRGEC"
5,200,"NNS6f59 (antibody, one-arm antibody) heavy: QVQLVESGGGLVQPGRSLRLSCAASGFTFSNAWMHWVRQAPGKGLEWVAQIKDKSNNYATYYAESVKGRFTISRDDSKNSIYLQMNSLKTEDTAVYYCRYVHYAALLVQEGYYGVDAWGQGTTVTVSSASTKGPSVFPLAPSSKSTSGGTAALGCLVKDYFPEPVTVSWNSGALTSGVHTFPAVLQSSGLYSLSSVVTVPSSSLGTQTYICNVNHKPSNTKVDKKVEPKSCDKTHTCPPCPAPEAAGGPSVFLFPPKPKDTLMISRTPEVTCVVVDVSHEDPEVKFNWYVDGVEVHNAKTKPREEQYASTYRVVSVLTVLHQDWLNGKEYKCKVSNKALPAPIEKTISKAKGQPREPQVYTLPPSRCELTKNQVSLSCAVKGFYPSDIAVEWESNGQPENNYKTTPPVLDSDGSFFLVSKLTVDKSRWQQGNVFSCSVMHEALHNHYTQKSLSLSPDYKDDDDK EPKSSDKTHTCPPCPAPELLGGPSVFLFPPKPKDTLMISRTPEVTCVVVDVSHEDPEVKFNWYVDGVEVHNAKTKPREEQYNSTYRVVSVLTVLHQDWLNGKEYKCKVSNKALPAPIEKTISKAKGQPREPQVCTLPPSRDELTKNQVSLWCLVKGFYPSDIAVEWESNGQPENNYKTTPPVLDSDGSFFLYSKLTVDKSRWQQGNVFSCSVMHEALHNRYTQKSLSLSP light: DIVMTQSPLSLPVTPGEPASISCRSSQSLVHSNRNTYLHWYQQKPGQAPRLLIYKVSNRFSGVPDRFSGSGSGTDFTLKISRVEAEDVGVYYCGQGTQVPYTFGQGTKLEIKRTVAAPSVFIFPPSDEQLKSGTASVVCLLNNFYPREAKVQWKVDNALQSGNSQESVTEQDSKDSTYSLSSTLTLSKADYEKHKVYACEVTHQGLSSPVTKSFNRGEC"
6,31,"NNS6f55 (antibody, one-arm antibody) heavy: QVQLVESGGGLVQPGRSLRLSCAASGFTFSNAWMHWVRQAPGKGLEWVAQIKDKSNNYATYYAESVKGRFTISRDDSKNSIYLQMNSLKTEDTAVYYCRYVHYAAAGRWLAYYGVDAWGQGTTVTVSSASTKGPSVFPLAPSSKSTSGGTAALGCLVKDYFPEPVTVSWNSGALTSGVHTFPAVLQSSGLYSLSSVVTVPSSSLGTQTYICNVNHKPSNTKVDKKVEPKSCDKTHTCPPCPAPEAAGGPSVFLFPPKPKDTLMISRTPEVTCVVVDVSHEDPEVKFNWYVDGVEVHNAKTKPREEQYASTYRVVSVLTVLHQDWLNGKEYKCKVSNKALPAPIEKTISKAKGQPREPQVYTLPPSRCELTKNQVSLSCAVKGFYPSDIAVEWESNGQPENNYKTTPPVLDSDGSFFLVSKLTVDKSRWQQGNVFSCSVMHEALHNHYTQKSLSLSPDYKDDDDK EPKSSDKTHTCPPCPAPELLGGPSVFLFPPKPKDTLMISRTPEVTCVVVDVSHEDPEVKFNWYVDGVEVHNAKTKPREEQYNSTYRVVSVLTVLHQDWLNGKEYKCKVSNKALPAPIEKTISKAKGQPREPQVCTLPPSRDELTKNQVSLWCLVKGFYPSDIAVEWESNGQPENNYKTTPPVLDSDGSFFLYSKLTVDKSRWQQGNVFSCSVMHEALHNRYTQKSLSLSP light: DIVMTQSPLSLPVTPGEPASISCRSSQSLVHSNRNTYLHWYQQKPGQAPRLLIYKVSNRFSGVPDRFSGSGSGTDFTLKISRVEAEDVGVYYCGQGTQVPYTFGQGTKLEIKRTVAAPSVFIFPPSDEQLKSGTASVVCLLNNFYPREAKVQWKVDNALQSGNSQESVTEQDSKDSTYSLSSTLTLSKADYEKHKVYACEVTHQGLSSPVTKSFNRGEC"
